The results in this text go back to PMC4082962.

For this experiment, the target named is Cdc42, endogenous in human mammary epithelial cells (human (endogenous in MCF10A and HMEC)) (UniProt P60953). The experiment is described as follows: pull-down.
Chain of UniProt P60953 (P60953 whole entry): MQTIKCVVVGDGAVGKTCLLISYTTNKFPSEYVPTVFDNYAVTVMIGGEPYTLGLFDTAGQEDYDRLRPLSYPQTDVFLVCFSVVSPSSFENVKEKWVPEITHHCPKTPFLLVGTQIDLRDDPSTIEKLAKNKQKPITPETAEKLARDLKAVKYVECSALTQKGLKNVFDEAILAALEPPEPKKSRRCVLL

For the substance “TβRIII-T841A (β-arrestin2 binding deficient) (from UniProt Q03167 21-851) (receptor)”, the percent decrease of the pull-down relative to TβRIII was found to be 70%.

Regarding “TβRIIIΔCyto (TβRIII lacking cytoplasmic domain) (domain or fragment)”, the percent decrease of the pull-down relative to TβRIII was found to be 60%.
